Laboratory results published in patent publication US20240270821A1, “GIP/GLP1/GCG TRI-RECEPTOR AGONISTS AND USES THEREOF” (priority 2023, published 2024).

Key:
Test in all cases: cell-based or functional assay
[1] = biological target: hGLP-1R (Homo sapiens, UniProt P43220)
[2] = biological target: T1, human GIP receptor (human) (UniProt P48546)
T1 sequence (looked up): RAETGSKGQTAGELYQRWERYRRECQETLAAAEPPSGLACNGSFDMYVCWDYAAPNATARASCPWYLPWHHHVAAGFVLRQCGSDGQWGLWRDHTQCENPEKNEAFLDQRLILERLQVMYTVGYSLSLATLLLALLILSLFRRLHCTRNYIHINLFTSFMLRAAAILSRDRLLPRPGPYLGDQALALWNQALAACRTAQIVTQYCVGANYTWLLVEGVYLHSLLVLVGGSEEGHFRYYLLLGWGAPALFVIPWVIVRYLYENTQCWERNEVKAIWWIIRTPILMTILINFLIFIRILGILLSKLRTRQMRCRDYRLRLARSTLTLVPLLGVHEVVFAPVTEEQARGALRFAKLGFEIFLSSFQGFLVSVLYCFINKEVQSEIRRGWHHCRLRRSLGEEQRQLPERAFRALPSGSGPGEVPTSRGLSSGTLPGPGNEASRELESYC

[3] = biological target: human GLP-1R (SNAP-GLP-1R expressed in HEK293 cells) (human) (UniProt P43220)
Sequence of human GLP-1R (SNAP-GLP-1R expressed in HEK293 cells) (human) (P43220 24-463): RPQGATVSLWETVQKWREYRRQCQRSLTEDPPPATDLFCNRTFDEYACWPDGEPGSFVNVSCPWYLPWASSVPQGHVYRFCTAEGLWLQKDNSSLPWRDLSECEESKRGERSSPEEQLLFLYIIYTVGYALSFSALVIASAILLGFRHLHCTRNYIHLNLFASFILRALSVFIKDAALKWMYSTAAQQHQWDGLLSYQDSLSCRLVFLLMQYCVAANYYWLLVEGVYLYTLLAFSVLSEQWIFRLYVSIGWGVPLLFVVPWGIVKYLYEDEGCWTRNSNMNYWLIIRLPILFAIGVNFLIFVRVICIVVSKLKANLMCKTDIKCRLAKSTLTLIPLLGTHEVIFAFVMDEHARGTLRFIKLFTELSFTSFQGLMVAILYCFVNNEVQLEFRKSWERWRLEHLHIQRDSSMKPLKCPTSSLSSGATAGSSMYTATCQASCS

[4] = biological target: human glucagon receptor (human) (UniProt P47871)
Sequence of human glucagon receptor (human) (P47871 26-477): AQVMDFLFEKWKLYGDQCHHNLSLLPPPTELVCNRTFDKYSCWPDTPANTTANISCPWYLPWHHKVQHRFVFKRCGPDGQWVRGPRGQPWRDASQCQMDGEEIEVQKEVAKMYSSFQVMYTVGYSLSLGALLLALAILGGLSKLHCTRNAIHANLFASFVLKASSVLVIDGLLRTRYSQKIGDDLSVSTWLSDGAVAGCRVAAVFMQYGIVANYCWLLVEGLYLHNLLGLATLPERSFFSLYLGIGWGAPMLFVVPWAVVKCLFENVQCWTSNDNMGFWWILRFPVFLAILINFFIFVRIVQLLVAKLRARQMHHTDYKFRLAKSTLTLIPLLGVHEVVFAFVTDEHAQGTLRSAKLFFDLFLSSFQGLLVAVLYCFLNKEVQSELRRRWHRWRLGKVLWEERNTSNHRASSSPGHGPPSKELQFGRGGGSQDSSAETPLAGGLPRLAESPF

Sequence of hGLP-1R (P43220 24-463): as the sequence (P43220 24-463) above

Row | Binder | Relative cAMP EC50, nM (0.1% casein) [1] [nM] | cAMP Rel EC50, nM (1% HSA) [1] [nM] | Relative cAMP EC50, nM (0.1% casein) [2] [nM] | cAMP Rel EC50, nM (1% HSA) [2] [nM] | GLP1R Internalization EC50 [3] [nM] | Internalization % TOP [3] [%] | Relative cAMP EC50, nM (0.1% casein) [4] [nM] | cAMP Rel EC50, nM (1% HSA) [4] [nM]
1 | YXQGTFTSDFSXXLDKKAQXAFIEYLLEAGPSSGEPPPSGQ (ornithine at residue 12; synthetic construct; SITE 2: note = 2-Aminoisobutyric Acid; SITE 12: note = L-ornithine; SITE 13: note = alpha-methyl-leucine; SITE 17: note = Lysine is chemically modified through conjugation of the epsilon-amino group of the Lysine side chain with (2-[2-(2-Amino-ethoxy)-ethoxy]-acetyl)2-(gamma-Glu)) [Example 157] | 3.04 | 496 | 0.183 | 22.2 | 60.3 | 53.3 | 4.16 | 838
2 | YXQGTFTSDFSXXLDKKAQXAFIEWLLEGGSSSGAPPPSGE (synthetic construct; SITE 2: note = 2-Aminoisobutyric Acid; SITE 12: note = L-ornithine; SITE 13: note = alpha-methyl-leucine; SITE 17: note = Lysine is chemically modified through conjugation of the epsilon-amino group of the Lysine side chain with (2-[2-(2-Amino-ethoxy)-ethoxy]-acetyl)-(gamma-Glu)) [Example 172] | 3.5 | 457 | 0.174 | 29.3 | 121 | 41.4 | 3.38 | 605
3 | YXQGTFTSDFSXXLDKKAQXAFIEYLLEGGXSSGAPPPGGS (synthetic construct; SITE 2: note = 2-Aminoisobutyric Acid; SITE 12: note = L-ornithine; SITE 13: note = alpha-methyl-leucine; SITE 17: note = Lysine is chemically modified through conjugation of the epsilon-amino group of the Lysine side chain with (2-[2-(2-Amino-ethoxy)-ethoxy]-acetyl)-(gamma-Glu)) [Example 163] | 6.5 | 762 | 0.376 | 52 | 143 | 37.8 | 5.6 | 790
4 | YXQGTFTSDFSXXLDKKAQXAFIEYLLEXGPSSGEPPPSGS (synthetic construct; SITE 2: note = 2-Aminoisobutyric Acid; SITE 12: note = L-ornithine; SITE 13: note = alpha-methyl-leucine; SITE 17: note = Lysine is chemically modified through conjugation of the epsilon-amino group of the Lysine side chain with (2-[2-(2-Amino-ethoxy)-ethoxy]-acetyl)2-(gamma-Glu)) [Example 166] | 6.96 | 1500 | 0.118 | 21 | 74.6 | 44.2 | 3.82 | 724
5 | YXQGTFTSDFSXXLDKKAQXAFIEWLLEGGSSSGAPPPSGT (synthetic construct; SITE 2: note = 2-Aminoisobutyric Acid; SITE 12: note = L-ornithine; SITE 13: note = alpha-methyl-leucine; SITE 17: note = Lysine is chemically modified through conjugation of the epsilon-amino group of the Lysine side chain with (2-[2-(2-Amino-ethoxy)-ethoxy]-acetyl)-(gamma-Glu)) [Example 174] | 2.33 | 208 | 0.198 | 20.8 | 123 | 52.8 | 4.24 | 307
6 | YXQGTFTSDFSXXLDKKAQXAFIEYLLEXGPSSGAPPPSGT (synthetic construct; SITE 2: note = 2-Aminoisobutyric Acid; SITE 12: note = L-ornithine; SITE 13: note = alpha-methyl-leucine; SITE 17: note = Lysine is chemically modified through conjugation of the epsilon-amino group of the Lysine side chain with (2-[2-(2-Amino-ethoxy)-ethoxy]-acetyl)2-(gamma-Glu)) [Example 165] | 6.52 | 808 | 0.0956 | 18.6 | 57.5 | 44.5 | 4.47 | 1250
7 | YXQGTFTSDFSXXLDKKAQXAFIEWLLEGGSSSGAPPPSGS (synthetic construct; SITE 2: note = 2-Aminoisobutyric Acid; SITE 12: note = L-ornithine; SITE 13: note = alpha-methyl-leucine; SITE 17: note = Lysine is chemically modified through conjugation of the epsilon-amino group of the Lysine side chain with (2-[2-(2-Amino-ethoxy)-ethoxy]-acetyl)-(gamma-Glu)) [Example 173] | 2.32 | 293 | 0.168 | 49.9 | 97.1 | 38.6 | 3.6 | 745
8 | YXQGTFTSDFSXXLDKKAQXAFIEYLLEXGPSSGEPPPSGT (synthetic construct; SITE 2: note = 2-Aminoisobutyric Acid; SITE 12: note = L-ornithine; SITE 13: note = alpha-methyl-leucine; SITE 17: note = Lysine is chemically modified through conjugation of the epsilon-amino group of the Lysine side chain with (2-[2-(2-Amino-ethoxy)-ethoxy]-acetyl)2-(gamma-Glu)) [Example 167] | 6.19 | 1300 | 0.101 | 24.7 | 75.9 | 44.7 | 5.05 | 938
9 | YXQGTFTSDFSXXLDKKAQXAFIEYLLEGGPSSGAPPPGGT (synthetic construct; SITE 2: note = 2-Aminoisobutyric Acid; SITE 12: note = L-ornithine; SITE 13: note = alpha-methyl-leucine; SITE 17: note = Lysine is chemically modified through conjugation of the epsilon-amino group of the Lysine side chain with (2-[2-(2-Amino-ethoxy)-ethoxy]-acetyl)-(gamma-Glu)) [Example 158] | 2.49 | 184 | 0.245 | 24.7 | 104 | 52.4 | 3.72 | 325
10 | YXQGTFTSDFSXXLDKKAQXAFIEYLLEGGHSSGEPPPGGS (synthetic construct; SITE 2: note = 2-Aminoisobutyric Acid; SITE 12: note = L-ornithine; SITE 13: note = alpha-methyl-leucine; SITE 17: note = Lysine is chemically modified through conjugation of the epsilon-amino group of the Lysine side chain with (2-[2-(2-Amino-ethoxy)-ethoxy]-acetyl)-(gamma-Glu)) [Example 164] | 5.02 | 962 | 0.302 | 59 | 45.9 | 46.5 | 2.92 | 411
11 | YXQGTFTSDFSXXLDKKAQXAFIEWLLEGGPSSGAPPPSGS (synthetic construct; SITE 2: note = 2-Aminoisobutyric Acid; SITE 12: note = L-ornithine; SITE 13: note = alpha-methyl-leucine; SITE 17: note = Lysine is chemically modified through conjugation of the epsilon-amino group of the Lysine side chain with (2-[2-(2-Amino-ethoxy)-ethoxy]-acetyl)-(gamma-Glu)) [Example 168] | 2.44 | 281 | 0.233 | 31.9 | 74.8 | 38.7 | 5.54 | 1270
12 | YXQGTFTSDFSXXLDKKAQXAFIEYLLEGGHSSGAPPPGGS (synthetic construct; SITE 2: note = 2-Aminoisobutyric Acid; SITE 12: note = L-ornithine; SITE 13: note = alpha-methyl-leucine; SITE 17: note = Lysine is chemically modified through conjugation of the epsilon-amino group of the Lysine side chain with (2-[2-(2-Amino-ethoxy)-ethoxy]-acetyl)-(gamma-Glu)) [Example 162] | 4.72 | 786 | 0.222 | 37.5 | 48.8 | 44.8 | 4.72 | 558
13 | YXQGTFTSDFSXXLDKKAQXAFIEWLLEGGHSSGAPPPSGE (synthetic construct; SITE 2: note = 2-Aminoisobutyric Acid; SITE 12: note = L-ornithine; SITE 13: note = alpha-methyl-leucine; SITE 17: note = Lysine is chemically modified through conjugation of the epsilon-amino group of the Lysine side chain with (2-[2-(2-Amino-ethoxy)-ethoxy]-acetyl)2-(gamma-Glu)) [Example 169] | 6.17 | 216 | 0.209 | 21.5 | 178 | 49.4 | 11.7 | 439
14 | YXQGTFTSDFSXXLDKKAQXAFIEWLLEGGTSSGAPPPSGS (synthetic construct; SITE 2: note = 2-Aminoisobutyric Acid; SITE 12: note = L-ornithine; SITE 13: note = alpha-methyl-leucine; SITE 17: note = Lysine is chemically modified through conjugation of the epsilon-amino group of the Lysine side chain with (2-[2-(2-Amino-ethoxy)-ethoxy]-acetyl)-(gamma-Glu)) [Example 176] | 2.92 | 389 | 0.212 | 40.7 | 103 | 48 | 4.1 | 461
15 | YXQGTFTSDFSXXLDKKAQXAFIEWLLEGGTSSGAPPPSGT (synthetic construct; SITE 2: note = 2-Aminoisobutyric Acid; SITE 12: note = L-ornithine; SITE 13: note = alpha-methyl-leucine; SITE 17: note = Lysine is chemically modified through conjugation of the epsilon-amino group of the Lysine side chain with (2-[2-(2-Amino-ethoxy)-ethoxy]-acetyl)-(gamma-Glu)) [Example 177] | 2.97 | 483 | 0.213 | 34.8 | 79.4 | 44 | 4.22 | 758
16 | YXQGTFTSDFSXXLDKKAQXAFIEWLLEGGHSSGAPPPSGT (synthetic construct; SITE 2: note = 2-Aminoisobutyric Acid; SITE 12: note = L-ornithine; SITE 13: note = alpha-methyl-leucine; SITE 17: note = Lysine is chemically modified through conjugation of the epsilon-amino group of the Lysine side chain with (2-[2-(2-Amino-ethoxy)-ethoxy]-acetyl)-(gamma-Glu)) [Example 171] | 2.89 | 287 | 0.2 | 27.1 | 61.4 | 36.1 | 3.86 | 502
17 | YXQGTFTSDFSXXLDKKAQXAFIEWLLEGGTSSGAPPPSGE (synthetic construct; SITE 2: note = 2-Aminoisobutyric Acid; SITE 12: note = L-ornithine; SITE 13: note = alpha-methyl-leucine; SITE 17: note = Lysine is chemically modified through conjugation of the epsilon-amino group of the Lysine side chain with (2-[2-(2-Amino-ethoxy)-ethoxy]-acetyl)-(gamma-Glu)) [Example 175] | 4 | 386 | 0.218 | 29.6 | 116 | 49.2 | 4.92 | 579
